In article PMC5138130 (Journal of molecular biology, 2016):
Substitutions are numbered along the chain they refer to. Names and notes keep the numbering of the source. Values joined by “and” are separate entries in the source; they are usually repeats but may differ in a detail not shown here. Equal values may be shown once. Blank lines part the entries; values can stand above or below the molecule they belong to.

Experiments:
[1] = biological target: Bni5(1–313) used for FFF-MALS (S. cerevisiae) (UniProt P53890); experiment: field-flow fractionation with multi-angle light scattering
[2] = biological target: T1, (His)8-3C protease cleavage site-Bni5 fusion (wild-type Bni5) (S. cerevisiae, UniProt P53890 1-448); experiment: negative-stain electron microscopy with 2D class averages
T1 sequence (looked up): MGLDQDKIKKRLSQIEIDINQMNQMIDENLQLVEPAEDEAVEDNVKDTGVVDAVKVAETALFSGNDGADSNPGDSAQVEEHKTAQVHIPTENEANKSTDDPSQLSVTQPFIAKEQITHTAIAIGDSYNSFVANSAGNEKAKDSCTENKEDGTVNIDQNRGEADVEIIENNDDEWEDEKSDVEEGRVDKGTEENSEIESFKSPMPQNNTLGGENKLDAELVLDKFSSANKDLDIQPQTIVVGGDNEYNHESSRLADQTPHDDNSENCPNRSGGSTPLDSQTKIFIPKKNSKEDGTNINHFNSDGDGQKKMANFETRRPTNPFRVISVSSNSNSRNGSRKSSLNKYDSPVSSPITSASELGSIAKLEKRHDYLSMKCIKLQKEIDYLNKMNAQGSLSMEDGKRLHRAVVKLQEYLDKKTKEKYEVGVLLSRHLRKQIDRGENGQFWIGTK

[3] = biological target: the molecule itself; experiment: as above
[4] = biological target: Otherwise Cys-less septin hetero-octamers capped with Cdc11(Δα0) E294C labeled with AF555 (S. cerevisiae) (UniProt P32458); experiment: FRET or BRET
[5] = biological target: T2, (His)8-3C protease cleavage site-Bni5 fusion (wild-type Bni5) (S. cerevisiae), P53890; experiment: field-flow fractionation with multi-angle light scattering; details: remark: other sources report otherwise
T2 chain: T1 sequence (looked up)

[6] = biological target: T2, (His)8-3C protease cleavage site-Bni5 …; experiment: AUC; details: remark: other sources report otherwise

stoichiometry N [1]: 2 and 4
Molecule: Bni5(1–313) used for FFF-MALS (from UniProt P53890 1-313) (domain or fragment)

binding result [2]: binds
B1: Cdc11 (wild type), terminal subunit of the septin hetero-octamer (natural protein, S. cerevisiae, UniProt P32458 1-415, looked up)
chain: MSGIIDASSALRKRKHLKRGITFTVMIVGQSGSGRSTFINTLCGQQVVDTSTTILLPTDTSTEIDLQLREETVELEDDEGVKIQLNIIDTPGFGDSLDNSPSFEIISDYIRHQYDEILLEESRVRRNPRFKDGRVHCCLYLINPTGHGLKEIDVEFIRQLGSLVNIIPVISKSDSLTRDELKLNKKLIMEDIDRWNLPIYNFPFDEDEISDEDYETNMYLRTLLPFAIIGSNEVYEMGGDVGTIRGRKYPWGILDVEDSSISDFVILRNALLISHLHDLKNYTHEILYERYRTEALSGESVAAESIRPNLTKLNGSSSSSTTTRRNTNPFKQSNNINNDVLNPASDMHGQSTGENNETYMTREEQIRLEEERLKAFEERVQQELLLKRQELLQREKELREIEARLEKEAKIKQEE

B2: Wild-type Cdc11-capped septin hetero-octamers (Cdc11-Cdc12-Cdc3-Cdc10-Cdc10-Cdc3-Cdc12-Cdc11) used for EM (complex, S. cerevisiae)
chain 1: B1 chain
chain 2: MSAATATAAPVPPPVGISNLPNQRYKIVNEEGGTFTVMLCGESGLGKTTFINTLFQTVLKRADGQQHRQEPIRKTVEIDITRALLEEKHFELRVNVIDTPGFGDNVNNNKAWQPLVDFIDDQHDSYMRQEQQPYRTKKFDLRVHAVLYFIRPTGHGLKPIDIETMKRLSTRANLIPVIAKADTLTAQELQQFKSRIRQVIEAQEIRIFTPPLDADSKEDAKSGSNPDSAAVEHARQLIEAMPFAIVGSEKKFDNGQGTQVVARKYPWGLVEIENDSHCDFRKLRALLLRTYLLDLISTTQEMHYETYRRLRLEGHENTGEGNEDFTLPAIAPARKLSHNPRYKEEENALKKYFTDQVKAEEQRFRQWEQNIVNERIRLNGDLEEIQGKVKKLEEQVKSLQVKKSHLK
chain 3: MSLKEEQVSIKQDPEQEERQHDQFNDVQIKQESQDHDGVDSQYTNGTQNDDSERFEAAESDVKVEPGLGMGITSSQSEKGQVLPDQPEIKFIRRQINGYVGFANLPKQWHRRSIKNGFSFNLLCVGPDGIGKTTLMKTLFNNDDIEANLVKDYEEELANDQEEEEGQGEGHENQSQEQRHKVKIKSYESVIEENGVKLNLNVIDTEGFGDFLNNDQKSWDPIIKEIDSRFDQYLDAENKINRHSINDKRIHACLYFIEPTGHYLKPLDLKFMQSVYEKCNLIPVIAKSDILTDEEILSFKKTIMNQLIQSNIELFKPPIYSNDDAENSHLSERLFSSLPYAVIGSNDIVENYSGNQVRGRSYPWGVIEVDNDNHSDFNLLKNLLIKQFMEELKERTSKILYENYRSSKLAKLGIKQDNSVFKEFDPISKQQEEKTLHEAKLAKLEIEMKTVFQQKVSEKEKKLQKSETELFARHKEMKEKLTKQLKALEDKKKQLELSINSASPNVNHSPVPTKKKGFLR
chain 4: MDPLSSVQPASYVGFDTITNQIEHRLLKKGFQFNIMVVGQSGLGKSTLINTLFASHLIDSATGDDISALPVTKTTEMKISTHTLVEDRVRLNINVIDTPGFGDFIDNSKAWEPIVKYIKEQHSQYLRKELTAQRERFITDTRVHAILYFLQPNGKELSRLDVEALKRLTEIANVIPVIGKSDTLTLDERTEFRELIQNEFEKYNFKIYPYDSEELTDEELELNRSVRSIIPFAVVGSENEIEINGETFRGRKTRWSAINVEDINQCDFVYLREFLIRTHLQDLIETTSYIHYEGFRARQLIALKENANSRSSAHMSSNAIQR
binding result [3]: binds

B3: Cdc11-capped septin hetero-octamers containing Cdc10-GFP as the sole source of Cdc10 (complex, S. cerevisiae)
chain 1: B1 chain
chain 2: B2 chain 2
chain 3: B2 chain 3
chain 4: B2 chain 4
binding result [3]: binds

Kd [4]: 154 nM
B4: Bni5(C144R C266F) labeled with AF647 at C375 (natural protein)
chain: T1 sequence (looked up) with C144R, C266F
modifications: AF647 (Alexa Fluor 647 maleimide) on C375

stoichiometry N [5]: 2 and 4
stoichiometry N [6]: 2
B5: (His)8-3C protease cleavage site-Bni5 fusion (wild-type Bni5), P53890 1-448 (natural protein)
chain: T1 sequence (looked up)

EC50 [4]: 614 nM
B6: Bni5(314–448) C375 labeled with AF647 (domain or fragment)
chain: TRRPTNPFRVISVSSNSNSRNGSRKSSLNKYDSPVSSPITSASELGSIAKLEKRHDYLSMKCIKLQKEIDYLNKMNAQGSLSMEDGKRLHRAVVKLQEYLDKKTKEKYEVGVLLSRHLRKQIDRGENGQFWIGTK
modifications: AF647 (Alexa Fluor 647 maleimide) on C375
